Test results reported in US20260176659A1, “IMPROVED METHOD FOR THE PRODUCTION OF NATURAL VANILLIN” (BASE SE, priority 2022, published 2026).

Experiments:
[1] = Spectrophotometric enzymatic assay: cleaving activity, production of vanillin from coniferyl alcohol at 349 nm; assay type: biochemical; details: freeze-dried cell free extract incl. buffer salts; vanillin from coniferyl alcohol
Method: Stock solution 200× of coniferyl alcohol (90 mg) was prepared in ethanol (5 mL) and stored at −20° C. From this, a new stock solution 20× of coniferyl alcohol (10 mM) was freshly prepared by 1:10 dilution in Glycine-NaOH (50 mM, pH 9.0). A cuvette containing 0.750 mL Glycine-NaOH (50 mM, pH 9.0) and 0.05 mL of the substrate 20× stock was pre-warmed at 25° C. for 1.5 mins. Then, the reaction was initiated by the addition of 0.2 mL of the enzyme sample. The cleaving […] activity was measured spectrophotometrically following the production of vanillin at 349 nm (ε349=26.7 mM^−1cm^−1 experimentally determined). One unit of activity (U) is defined as the amount of enzyme required to produce 1 μmol of vanillin per min. Agilent Cary 60 UV-Vis Spectrophotometer was used for all the measurements.
Searching for alternative novel alkene cleavage oxygenases (COs) catalysing the formation of vanillin from coniferyl alcohol was performed. A set of 27 sequences and 10 COs from different branches of the phylogenetic tree were selected, named CO-02-11. Two additional enzymes were included, which are located in different clusters of the phylogenetic tree: Lignostillbene dioxygenase from Pseudomonas brassicaceraum (PbLSD, PDB: 5V2D) and aromatic dioxygenase (Ado, CO-01) from Thermothelomyces thermophilus (GenBank ID: XP_003665585). The proteins were recombinantly expressed in E. coli BL21(DE3), following the same protocol developed for IECO. […] Putative COs were screened by spectrophotometric assay, monitoring the formation of 3a upon 2a cleavage. From a set of twelve COs, four positive hits, namely CO-01, CO-03, CO-06 and CO-07 were found. Positive variants were tested in the one pot cascade and compared them with IECO In agreement with the spectrophotometric screening, all four COs converted eugenol 1a to vanillin 3a (Table 8). The first step of the cascade is efficiently performed by EUGO, and the substrate is completely consumed. […] Overall, 70±3% conversion of 1a to vanillin 3a was achieved.

[2] = Biotransformation of isoeugenol to vanillin: pH and solvent screening; assay type: biochemical
Method: Stock solution of rac-isoeugenol (100 mM) was prepared in DMSO and stored at 4° C. Each reaction mixtures (1 mL) were set up as follows: rac-isoeugenol (50 μL, final concentration 5 mM) was diluted in various buffers (100 mM, pH 7.0-10.5) in 4 mL glass vials, together with FeSO4 (0.5 mM) and DMSO (150 μL; final concentration including the part from substrate stock: 20% v/v). The reaction was initiated by the addition of IECO (cell free extract 1 mg/mL). Wild type E. coli BL21 (DE3) was used as negative control. The reaction was incubated for 24 hours at 30° C. and 120 rpm (rotary shaker). To improve the oxygenation, the vials were placed horizontally. The reaction was quenched with methanol (2 vol. equiv.), centrifuged at 20238 g for 5-10 mins and analysed by HPLC.
Stock solutions of rac-isoeugenol (100 mM) were prepared in different solvents and stored in the dark at 4° C. Each reaction mixtures (1 mL) were set up as follows: ra-isoeugenol (50 μL, final concentration 5 mM) was diluted in Glycine-NaOH (100 mM, pH 9.5) in 4 mL glass vials, together with FeSO4 (0.5 mM) and the respective cosolvent (0, 50 or 150 μL; final content of cosolvent including the part from the substrate stock: 5, 10 and 20% v/v). The reaction was initiated by the addition of IECO (cell free extract 1 mg/mL). […] The reaction was quenched with methanol (2 vol. equiv.), centrifuged at 20238 g and analysed by HPLC.

B1: IECO: isoeugenol cleavage oxygenase from Pseudomonas nitroreducens (GenBank: ACP17973), SEQ ID NO: 24 (protein, listed as Pseudomonas nitroreducens)
chain: MARLNRNDPQLVGTLLPTRIEADLFDLEVDGEIPKSINGTFYRNTPEPQVTPQKFHTFIDGDGMASAFHFEDGHVDFISRWVKTARFTAERLARKSLFGMYRNPYTDDTSVKGLDRTVANTSIISHHGKVLAVKEDGLPYELDPRTLETRGRFDYDGQVTSQTHTAHPKYDPETGDLLFFGSAAKGEATPDMAYYIVDKHGKVTHETWFEQPYGAFMHDFAITRNWSIFPIMPATNSLSRLKAKQPIYMWEPELGSYIGVLPRRGQGSQIRWLKAPALWVFHVVNAWEVGTKIYIDLMESEILPFPFPNSQNQPFAPEKAVPRLTRWEIDLDSSSDEIKRTRLHDFFAEMPIMDFRFALQCNRYGFMGVDDPRKPLAHQQAEKIFAYNSLGIWDNHRGDYDLWYSGEASAAQEPAFVPRSPTAAEGDGYLLTVVGRLDENRSDLVILDTQDIQSGPVATIKLPFRLRAALHGCWVPRP
[1]
  Specific Activity (mU/mg of FD-CFE): 2.8 mU/mg
[2]; rac-isoeugenol 5 mM, buffers pH 7.0-10.5
  pH optimum of activity toward isoeugenol: 9.0
[2]; solvent screening 5, 10 and 20% v/v
  cosolvent tolerance, activity toward isoeugenol: tolerates a panel of cosolvents, with a preference for ethanol and DMSO
